B1: Cell division protein FtsB (Escherichia coli (strain K12)), P0A6S5 (parent)
chain: MGKLTLLLLAILVWLQYSLWFGKNGIHDYTRVNDDVAAQQATNAKLKARNDQLFAEIDDLNGGQEALEERARNELSMTRPGETFYRLVPDASKRAQSAGQNNR
partner: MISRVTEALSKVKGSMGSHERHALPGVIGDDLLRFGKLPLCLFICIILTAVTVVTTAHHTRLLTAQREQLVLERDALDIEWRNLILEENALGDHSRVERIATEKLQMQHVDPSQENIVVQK
B2: Cell division protein FtsL (Escherichia coli (strain K12)), P0AEN4 (parent)
chain: B1 partner
partner: B1 chain

Variants of: B1
Conditions: with ftsl_ecoli ftsL, P0AEN4

effect of a mutation on the interaction | Variant
decreasing interaction | L46A;L53A;L60A;L67A

Variants of: B1
Conditions: with ftsl_ecoli ftsL

effect of a mutation on the interaction | Variant
decreasing interaction | L46A;L53A;L60A;L67A

Variants of: B2
Conditions: with ftsb_ecoli ftsB, P0A6S5

effect of a mutation on the interaction | Variant
decreasing interaction strength | L63A;L70A;L77A;L84A

Reference: IntAct's records for PubMed 21784946
